Ends that are not written are not given here.
Columns and labels:
[1] = target: T1, CYLD CAP-Gly1 domain, GST-tagged, Q9NQC7; experiment: peptide SPOT array alanine scanning; details: chain shown with the change;; parent: est. 0; read off a plot
T1 chain: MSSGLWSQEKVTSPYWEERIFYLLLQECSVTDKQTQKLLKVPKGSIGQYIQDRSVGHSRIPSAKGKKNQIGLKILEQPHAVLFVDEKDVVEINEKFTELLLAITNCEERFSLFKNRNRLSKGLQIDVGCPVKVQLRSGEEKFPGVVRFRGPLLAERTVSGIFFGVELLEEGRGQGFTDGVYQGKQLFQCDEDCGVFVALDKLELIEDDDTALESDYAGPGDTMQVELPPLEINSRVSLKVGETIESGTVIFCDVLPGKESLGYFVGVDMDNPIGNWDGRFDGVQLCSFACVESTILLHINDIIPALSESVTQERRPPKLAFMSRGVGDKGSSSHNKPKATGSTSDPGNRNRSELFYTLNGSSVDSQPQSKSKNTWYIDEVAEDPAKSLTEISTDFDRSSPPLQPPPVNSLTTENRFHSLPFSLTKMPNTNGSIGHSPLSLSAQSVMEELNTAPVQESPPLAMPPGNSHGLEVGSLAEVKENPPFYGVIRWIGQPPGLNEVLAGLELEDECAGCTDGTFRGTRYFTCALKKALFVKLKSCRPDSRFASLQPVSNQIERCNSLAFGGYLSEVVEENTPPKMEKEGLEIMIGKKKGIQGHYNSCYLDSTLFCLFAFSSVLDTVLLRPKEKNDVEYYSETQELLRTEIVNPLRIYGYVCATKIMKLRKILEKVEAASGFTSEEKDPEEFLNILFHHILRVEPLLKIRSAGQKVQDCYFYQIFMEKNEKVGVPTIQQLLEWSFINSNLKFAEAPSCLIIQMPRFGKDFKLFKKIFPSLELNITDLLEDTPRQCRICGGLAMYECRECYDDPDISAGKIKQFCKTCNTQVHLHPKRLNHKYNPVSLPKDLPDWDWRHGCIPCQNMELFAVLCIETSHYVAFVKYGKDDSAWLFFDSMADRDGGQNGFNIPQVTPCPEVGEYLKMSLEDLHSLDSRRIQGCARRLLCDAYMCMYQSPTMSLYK

[2] = target: T2, CYLD CAP-Gly3 domain, GST-tagged, Q9NQC7; experiment: peptide SPOT array alanine scanning; details: chain shown with the change;; parent: est. 0; read off a plot
T2 chain: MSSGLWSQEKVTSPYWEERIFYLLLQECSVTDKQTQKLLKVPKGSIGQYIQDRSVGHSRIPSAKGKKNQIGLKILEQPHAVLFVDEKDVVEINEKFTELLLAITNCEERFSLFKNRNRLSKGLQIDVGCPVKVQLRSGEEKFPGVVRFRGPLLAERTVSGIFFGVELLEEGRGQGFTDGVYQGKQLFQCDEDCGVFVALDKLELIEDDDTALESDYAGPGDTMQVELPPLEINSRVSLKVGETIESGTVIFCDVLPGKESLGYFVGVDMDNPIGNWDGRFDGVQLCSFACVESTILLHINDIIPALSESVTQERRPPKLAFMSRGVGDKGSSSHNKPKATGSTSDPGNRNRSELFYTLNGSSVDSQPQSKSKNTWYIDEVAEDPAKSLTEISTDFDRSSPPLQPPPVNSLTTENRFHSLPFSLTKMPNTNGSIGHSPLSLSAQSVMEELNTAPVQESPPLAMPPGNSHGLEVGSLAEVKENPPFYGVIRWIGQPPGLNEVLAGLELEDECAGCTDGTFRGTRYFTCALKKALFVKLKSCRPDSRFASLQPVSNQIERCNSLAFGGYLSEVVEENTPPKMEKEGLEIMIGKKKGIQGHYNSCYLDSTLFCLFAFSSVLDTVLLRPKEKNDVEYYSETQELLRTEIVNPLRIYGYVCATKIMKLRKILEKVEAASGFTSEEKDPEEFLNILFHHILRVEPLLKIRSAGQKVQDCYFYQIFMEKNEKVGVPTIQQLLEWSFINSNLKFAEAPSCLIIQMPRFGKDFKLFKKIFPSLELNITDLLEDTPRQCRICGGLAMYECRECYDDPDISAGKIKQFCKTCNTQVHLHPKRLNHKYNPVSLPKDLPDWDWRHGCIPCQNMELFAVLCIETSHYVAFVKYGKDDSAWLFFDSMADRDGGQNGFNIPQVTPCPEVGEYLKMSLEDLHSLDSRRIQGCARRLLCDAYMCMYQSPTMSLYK

[3] = target: USP22 zf-UBP domain, tag cleaved (for FP) (human) (UniProt Q9UPT9); experiment: fluorescence polarisation; saturation or displacement not stated for this experiment; 50 mM phosphate buffer pH 7.4, room temperature
[4] = target: USP33 zf-UBP domain (human) (UniProt Q8TEY7); experiment: fluorescence polarisation; displacement: serial dilution of the unlabelled peptide against the domain (at two-fold the KD of the FITC-labelled peptide) in complex with 10 nM FITC-labelled peptide; 50 mM phosphate buffer pH 7.4; room temperature; three technical replicates; sigmoidal dose-response fit
[5] = target: USP20 zf-UBP domain (human) (UniProt Q9Y2K6); experiment: as above
[6] = target: USP20 DUSP2 domain (human) (UniProt Q9Y2K6); experiment: as above
[7] = target: USP33 DUSP2 domain (human) (UniProt Q8TEY7); experiment: as above
[8] = target: USP33 zf-UBP domain, tag cleaved (for FP) (human) (UniProt Q8TEY7); experiment: fluorescence polarisation; displacement: unlabeled peptide titrated into the domain (at two-fold the KD of the FITC-labeled peptide) with 10 nM FITC-labeled peptide; 50 mM phosphate buffer pH 7.4, DTT, room temperature; estimated KD
[9] = target: USP20 zf-UBP domain, tag cleaved (for FP) (human); experiment: as above
Sequence of USP20 zf-UBP domain, tag cleaved (for FP) (human) (Q9Y2K6 whole entry, the tested form may be a part): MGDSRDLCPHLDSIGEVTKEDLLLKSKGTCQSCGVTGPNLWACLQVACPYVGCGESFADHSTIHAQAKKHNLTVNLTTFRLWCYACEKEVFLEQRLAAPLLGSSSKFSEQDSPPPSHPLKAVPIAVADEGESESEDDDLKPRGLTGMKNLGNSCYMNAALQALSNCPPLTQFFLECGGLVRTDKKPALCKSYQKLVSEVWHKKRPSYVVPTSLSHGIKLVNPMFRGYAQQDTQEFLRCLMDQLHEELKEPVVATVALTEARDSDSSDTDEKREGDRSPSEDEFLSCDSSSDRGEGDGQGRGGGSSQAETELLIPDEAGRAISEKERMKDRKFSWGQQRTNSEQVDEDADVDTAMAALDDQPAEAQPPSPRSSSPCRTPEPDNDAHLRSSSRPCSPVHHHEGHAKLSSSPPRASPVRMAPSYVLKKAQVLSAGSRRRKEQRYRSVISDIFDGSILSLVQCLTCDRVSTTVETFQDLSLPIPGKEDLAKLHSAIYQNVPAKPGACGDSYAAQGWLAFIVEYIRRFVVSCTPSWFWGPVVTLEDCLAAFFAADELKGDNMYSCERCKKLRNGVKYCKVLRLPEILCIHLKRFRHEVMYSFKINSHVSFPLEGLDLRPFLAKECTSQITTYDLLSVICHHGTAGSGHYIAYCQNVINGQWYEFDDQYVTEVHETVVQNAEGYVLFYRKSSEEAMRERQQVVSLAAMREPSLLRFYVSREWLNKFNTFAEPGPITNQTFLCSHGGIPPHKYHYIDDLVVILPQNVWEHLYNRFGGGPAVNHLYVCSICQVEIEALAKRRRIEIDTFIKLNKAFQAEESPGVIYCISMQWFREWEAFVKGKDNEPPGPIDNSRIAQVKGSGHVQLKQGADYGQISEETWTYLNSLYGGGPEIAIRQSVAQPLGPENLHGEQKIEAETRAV

Sequence of USP33 DUSP2 domain (human) (Q8TEY7 whole entry, the tested form may be a part): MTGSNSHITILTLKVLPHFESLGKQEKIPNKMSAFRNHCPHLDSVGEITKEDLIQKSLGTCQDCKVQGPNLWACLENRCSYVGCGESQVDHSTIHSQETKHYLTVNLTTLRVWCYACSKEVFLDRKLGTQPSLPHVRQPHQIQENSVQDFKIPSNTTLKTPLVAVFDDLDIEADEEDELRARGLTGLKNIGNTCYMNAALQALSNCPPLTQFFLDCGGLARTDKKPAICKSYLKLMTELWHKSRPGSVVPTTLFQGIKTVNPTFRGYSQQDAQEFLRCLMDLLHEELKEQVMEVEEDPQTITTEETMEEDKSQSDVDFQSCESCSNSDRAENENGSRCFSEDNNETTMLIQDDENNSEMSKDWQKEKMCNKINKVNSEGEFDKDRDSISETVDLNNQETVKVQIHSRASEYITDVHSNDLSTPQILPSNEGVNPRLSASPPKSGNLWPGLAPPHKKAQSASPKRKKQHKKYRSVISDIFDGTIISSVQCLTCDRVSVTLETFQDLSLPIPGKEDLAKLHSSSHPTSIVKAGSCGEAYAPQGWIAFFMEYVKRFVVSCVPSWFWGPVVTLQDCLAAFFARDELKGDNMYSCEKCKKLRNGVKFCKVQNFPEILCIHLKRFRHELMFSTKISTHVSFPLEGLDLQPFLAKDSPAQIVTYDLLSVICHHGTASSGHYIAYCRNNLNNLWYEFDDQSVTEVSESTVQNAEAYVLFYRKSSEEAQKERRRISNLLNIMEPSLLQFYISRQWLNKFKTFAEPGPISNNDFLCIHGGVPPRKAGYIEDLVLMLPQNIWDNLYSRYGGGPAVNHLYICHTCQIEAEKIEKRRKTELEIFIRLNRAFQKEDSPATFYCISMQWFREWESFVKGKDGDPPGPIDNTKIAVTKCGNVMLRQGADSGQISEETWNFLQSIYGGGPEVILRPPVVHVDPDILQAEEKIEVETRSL
Sequence of USP33 zf-UBP domain (human) (Q8TEY7 whole entry, the tested form may be a part): as above
Sequence of USP22 zf-UBP domain, tag cleaved (for FP) (human) (Q9UPT9 whole entry, the tested form may be a part): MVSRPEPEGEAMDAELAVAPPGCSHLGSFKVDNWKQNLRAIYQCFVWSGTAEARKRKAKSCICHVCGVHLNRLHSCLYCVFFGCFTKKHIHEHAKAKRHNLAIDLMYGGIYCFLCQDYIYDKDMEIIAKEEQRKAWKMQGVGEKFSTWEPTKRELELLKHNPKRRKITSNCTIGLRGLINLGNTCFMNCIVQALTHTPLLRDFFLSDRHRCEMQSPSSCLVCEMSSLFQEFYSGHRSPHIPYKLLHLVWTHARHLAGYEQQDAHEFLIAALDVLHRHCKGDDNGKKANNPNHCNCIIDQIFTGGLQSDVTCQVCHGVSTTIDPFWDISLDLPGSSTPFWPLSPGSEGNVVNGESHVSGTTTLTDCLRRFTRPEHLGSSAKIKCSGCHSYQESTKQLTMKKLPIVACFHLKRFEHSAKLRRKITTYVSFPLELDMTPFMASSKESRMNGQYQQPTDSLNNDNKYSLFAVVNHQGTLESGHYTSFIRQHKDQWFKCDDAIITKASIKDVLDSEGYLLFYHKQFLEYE
Sequence of USP20 zf-UBP domain (human) (Q9Y2K6 whole entry, the tested form may be a part): as the sequence (Q9Y2K6 whole entry, the tested form may be a part) above
Sequence of USP20 DUSP2 domain (human) (Q9Y2K6 whole entry, the tested form may be a part): as above
Sequence of USP33 zf-UBP domain, tag cleaved (for FP) (human) (Q8TEY7 whole entry, the tested form may be a part): as the sequence (Q8TEY7 whole entry, the tested form may be a part) above

PAAELQRMEQEAERRR [RBM25_(558-573) peptide, P49756 D559A]
other: signal change (%) [1]: -10%

PDAALQRMEQEAERRR [RBM25_(558-573) peptide, P49756 E561A]
other: signal change (%) [1]: -30%

GGVAKDEIYIPLQEED [HECTD4_(3003-3018) peptide, Q9Y4D8 F3006A]
other: signal change (%) [2]: -95%

GGVFKDEIYAPLQEED [HECTD4_(3003-3018) peptide, Q9Y4D8 I3012A]
other: signal change (%) [2]: -90%

VPSPEAFLGKPWSSWID-NH2 (also: N-terminus FITC-labeled or acetylated) [ATXN7L1_(36-52) peptide]
Kd [3]: 11 µM

Ac-YLQPSSKASLESTSDL-NH2 [CEP192 2073-2087 peptide]
Kd [4]: 14.1 µM
Kd [5]: 37.1 µM

PDAELQRMEQEAARRR [RBM25_(558-573) peptide, P49756 E570A]
other: signal change (%) [1]: -10%

GGVFKDEIYIPLQAED [HECTD4_(3003-3018) peptide, Q9Y4D8 E3016A]
other: signal change (%) [2]: -25%

PDAELQRAEQEAERRR [RBM25_(558-573) peptide, P49756 M565A]
other: signal change (%) [1]: -90%

GGVFKDEIYIPLQEEA [HECTD4_(3003-3018) peptide, Q9Y4D8 D3018A]
other: signal change (%) [2]: 35%

PDAELQAMEQEAERRR [RBM25_(558-573) peptide, P49756 R564A]
other: signal change (%) [1]: -65%

GGVFKDEIYIALQEED [HECTD4_(3003-3018) peptide, Q9Y4D8 P3013A]
other: signal change (%) [2]: -85%

PDAEAQRMEQEAERRR [RBM25_(558-573) peptide, P49756 L562A]
other: signal change (%) [1]: -95%

GGVFKDAIYIPLQEED [HECTD4_(3003-3018) peptide, Q9Y4D8 E3009A]
other: signal change (%) [2]: -95%

Ac-PYIPMDGEDFQLSPICPE-NH2 [HIF2A 531-548 peptide]
Kd [6]: 235 µM
Kd [7]: 1180 µM

VPSPEAFLGKPWSSWIDAAKLH-NH2 (also: N-terminus FITC-labeled or acetylated) [ATXN7L1_(36-57) peptide]
Kd [3]: 0.1 µM

Ac-QLEEELFQLRQGPAGY-NH2 [CCDC88B 947-961 peptide]
Kd [6]: 22.4 µM
Kd [7]: 40.1 µM

Ac-PYIPMDKDFQLRSFDQLS-NH2 [HIF1A 564-581 D570K peptide]
Kd [6]: 18.8 µM
Kd [7]: 9.89 µM

ADAELQRMEQEAERRR [RBM25_(558-573) peptide, P49756 P558A]
other: signal change (%) [1]: -5%

GGVFKDEIYIPAQEED [HECTD4_(3003-3018) peptide, Q9Y4D8 L3014A]
other: signal change (%) [2]: 50%

Ac-AQSKTQLEVRPV-NH2 [ROBO1_(1495-1506) peptide]
Kd [8]: 14 µM
Kd [9]: 82 µM

GGVFKDEAYIPLQEED [HECTD4_(3003-3018) peptide, Q9Y4D8 I3010A]
other: signal change (%) [2]: -95%

Ac-YTNSSGKMALNSPQPG-NH2 [IRAG1 302-316 peptide]
Kd [4]: 7.86 µM
Kd [5]: 9.02 µM

Ac-SDDDLAWNIAPQGLQ-NH2 [GPR137B 348-362 peptide, unlabelled]
Kd [6]: 10.2 µM
Kd [7]: 228 µM

GGVFKDEIYIPLAEED [HECTD4_(3003-3018) peptide, Q9Y4D8 Q3015A]
other: signal change (%) [2]: -15%

AGVFKDEIYIPLQEED [HECTD4_(3003-3018) peptide, Q9Y4D8 G3003A]
other: signal change (%) [2]: -5%

VPSLDDFAGQSWSSWVE-NH2 (also: N-terminus FITC-labeled or acetylated) [ATXN7L2_(18-34) peptide]
Kd [3]: 19 µM

PDAELQRMEQEAERAR [RBM25_(558-573) peptide, P49756 R572A]
other: signal change (%) [1]: -95%

GGVFKDEIYIPLQEAD [HECTD4_(3003-3018) peptide, Q9Y4D8 E3017A]
other: signal change (%) [2]: 55%

GGVFKAEIYIPLQEED [HECTD4_(3003-3018) peptide, Q9Y4D8 D3008A]
other: signal change (%) [2]: -95%

Ac-YEKVKRRLDLDID-NH2 [CCP110 582-593 peptide]
Kd [4]: 260 µM
Kd [5]: 505 µM

PDAELQRMAQEAERRR [RBM25_(558-573) peptide, P49756 E566A]
other: signal change (%) [1]: -15%

GGAFKDEIYIPLQEED [HECTD4_(3003-3018) peptide, Q9Y4D8 V3005A]
other: signal change (%) [2]: -70%

PDAELQRMEQEAERRA [RBM25_(558-573) peptide, P49756 R573A]
other: signal change (%) [1]: -95%

Ac-YPFQPGRMALESQSPG-NH2 [USP19 874-888 peptide]
Kd [4]: 40.6 µM
Kd [5]: 162 µM

PDAELQRMEAEAERRR [RBM25_(558-573) peptide, P49756 Q567A]
other: signal change (%) [1]: -25%

Ac-PYIPMDDDFQARSFDQLS-NH2 [HIF1A 564-581 L574A peptide]
Kd [7]: 227 µM

PDAELARMEQEAERRR [RBM25_(558-573) peptide, P49756 Q563A]
other: signal change (%) [1]: -35%

PDAELQRMEQEAEARR [RBM25_(558-573) peptide, P49756 R571A]
other: signal change (%) [1]: -40%

GAVFKDEIYIPLQEED [HECTD4_(3003-3018) peptide, Q9Y4D8 G3004A]
other: signal change (%) [2]: -95%

PDAELQRMEQAAERRR [RBM25_(558-573) peptide, P49756 E568A]
other: signal change (%) [1]: -15%

GGVFKDEIAIPLQEED [HECTD4_(3003-3018) peptide, Q9Y4D8 Y3011A]
other: signal change (%) [2]: -95%

GGVFADEIYIPLQEED [HECTD4_(3003-3018) peptide, Q9Y4D8 K3007A]
other: signal change (%) [2]: -95%

VPSLDDFAGQSWSSWVERADLP-NH2 (also: N-terminus FITC-labeled or acetylated) [ATXN7L2_(18-39) peptide]
Kd [3]: 3 µM

Ac-DVVDDFQLQHRHGPGY-NH2 [MFSD2B 395-409 peptide]
Kd [6]: 44.7 µM
Kd [7]: 0.75 µM
